We go through 25 molecules from PMC10810270, “Molecular mechanism of specific DNA sequence recognition by NRF1” (Nucleic Acids Research, 2023).

Numbering of substitutions follows the chain as printed.

For data set [1], the target named is T1, NRF1 DD-DBD (human, UniProt Q16656 54-284).
T1 sequence: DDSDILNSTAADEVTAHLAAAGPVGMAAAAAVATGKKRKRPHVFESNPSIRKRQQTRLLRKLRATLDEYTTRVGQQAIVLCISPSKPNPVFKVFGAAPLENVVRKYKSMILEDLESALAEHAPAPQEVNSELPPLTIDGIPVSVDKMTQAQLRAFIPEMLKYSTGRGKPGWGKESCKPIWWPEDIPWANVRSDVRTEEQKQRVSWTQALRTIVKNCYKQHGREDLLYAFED
The data set can be described thus: ITC; ITC: 20 mM Hepes pH 7.0, 150 mM NaCl, 25 C; protein 20-30 uM, dsDNA 500-600 uM. The conditions noted are these: protein: recombinant, tags: N-terminal His6 removed by TEV (pET28-MHL), chain copies: 2, blunt.

Data set [2] deals with the molecule itself. The experiment in a line: SEC-MALS; HPLC-MALS, WTC-015S5 column, 50 mM PBS and 150 mM NaCl, 0.5 mL/min; oligomeric state of NRF1 fragments without DNA.
Data set [3] has as its target T2, NRF1 DBD (human, UniProt Q16656 177-284).
T2 sequence: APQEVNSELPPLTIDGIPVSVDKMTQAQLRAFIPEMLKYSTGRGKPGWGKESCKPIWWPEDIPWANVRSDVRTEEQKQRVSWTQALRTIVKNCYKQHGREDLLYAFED
The data set can be described thus: crystal structure; ITC: 20 mM Hepes pH 7.0, 150 mM NaCl, 25 C; protein 20-30 uM, dsDNA 500-600 uM. The conditions noted are these: protein: recombinant; tags: N-terminal His6 removed by TEV (pET28-MHL); chain copies: 2; blunt; self-complementary.

Data set [4] concerns the target T2, NRF1 DBD. The data set can be described thus: ITC; ITC: 20 mM Hepes pH 7.0, 150 mM NaCl, 25 C; protein 20-30 uM, dsDNA 500-600 uM. The conditions noted are these: protein: recombinant; tags: N-terminal His6 removed by TEV (pET28-MHL); chain copies: 2; blunt; self-complementary.
A further data set deals with T3, NRF1 DD (human, UniProt Q16656 54-177).
T3 sequence: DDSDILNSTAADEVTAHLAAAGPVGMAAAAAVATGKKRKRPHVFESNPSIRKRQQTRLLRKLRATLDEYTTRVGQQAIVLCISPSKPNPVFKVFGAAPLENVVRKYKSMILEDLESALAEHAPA
The data set can be described thus: ITC; repeats 1.86, 1.78, 1.96; ITC: 20 mM Hepes pH 7.0, 150 mM NaCl, 25 C; protein 20-30 uM, dsDNA 500-600 uM. The conditions noted are these: protein: recombinant; tags: N-terminal His6 removed by TEV (pET28-MHL); chain copies: 2; blunt; self-complementary.

The target in a further data set is T4, NRF1 N242A (human, UniProt Q16656 54-284, N242A).
T4 sequence: T1 sequence with N189A
The data set can be described thus: ITC; mean of repeats 1.40, 1.89, 1.89; ITC: 20 mM Hepes pH 7.0, 150 mM NaCl, 25 C; protein 20-30 uM, dsDNA 500-600 uM. The conditions noted are these: protein: recombinant; tags: N-terminal His6 removed by TEV; chain copies: 2; blunt; self-complementary.

A further data set deals with T5, NRF1 T109D (human, UniProt Q16656 54-284, T109D).
T5 sequence: T1 sequence with T56D
The data set can be described thus: ITC; mean of repeats 1.62, 1.87, 1.30; ITC: 20 mM Hepes pH 7.0, 150 mM NaCl, 25 C; protein 20-30 uM, dsDNA 500-600 uM. The conditions noted are these: protein: recombinant; tags: N-terminal His6 removed by TEV; chain copies: 2; blunt; self-complementary.

The next data set deals with T6, NRF1 T109A (human, UniProt Q16656 54-284, T109A).
T6 sequence: T1 sequence with T56A
The data set can be described thus: ITC; mean of repeats 2.80, 2.36, 1.72; ITC: 20 mM Hepes pH 7.0, 150 mM NaCl, 25 C; protein 20-30 uM, dsDNA 500-600 uM. The conditions noted are these: protein: recombinant; tags: N-terminal His6 removed by TEV; chain copies: 2; blunt; self-complementary.

The next data set concerns the target T7, NRF1 R206A (human, UniProt Q16656 54-284, R206A).
T7 sequence: T1 sequence with R153A
The data set can be described thus: ITC; mean of repeats 5.60, 5.60, 4.40; ITC: 20 mM Hepes pH 7.0, 150 mM NaCl, 25 C; protein 20-30 uM, dsDNA 500-600 uM. The conditions noted are these: protein: recombinant; tags: N-terminal His6 removed by TEV; chain copies: 2; blunt; self-complementary.

The next data set deals with T8, NRF1 R244A (human, UniProt Q16656 54-284, R244A).
T8 sequence: T1 sequence with R191A
The data set can be described thus: ITC; mean of repeats 6.45, 8.62, 4.92; ITC: 20 mM Hepes pH 7.0, 150 mM NaCl, 25 C; protein 20-30 uM, dsDNA 500-600 uM. The conditions noted are these: protein: recombinant; tags: N-terminal His6 removed by TEV; chain copies: 2; blunt; self-complementary.

Data set [5] concerns the target T1, NRF1 DD-DBD. The experiment in a line: ITC; mean of listed repeats 0.34 and 0.25; ITC: 20 mM Hepes pH 7.0, 150 mM NaCl, 25 C; protein 20-30 uM, dsDNA 500-600 uM. The conditions noted are these: protein: recombinant; tags: N-terminal His6 removed by TEV (pET28-MHL); chain copies: 2; blunt; self-complementary.

B1: CG central (dsDNA)
DNA 1: ATGCGCCGGCGCAT
DNA 2: ATGCGCCGGCGCAT
For B1, the equilibrium dissociation constant (Kd) with NRF1 DD-DBD [1] (self-complementary) was 1090 ± 60 nM.

B2: GCGt/aCGC (dsDNA)
DNA 1: ATGCGTATACGCAT
DNA 2: ATGCGTATACGCAT
Turning to B2, in the data set with NRF1 DD-DBD [1] (self-complementary), the Kd stood at 1310 ± 180 nM.

B3: atta/GCGC (dsDNA)
DNA 1: ATATTAATGCGCAT
DNA 2: ATGCGCATTAATAT
For B3, in the data set with NRF1 DD-DBD [1], the Kd was determined as 3760 ± 230 nM.

B4: no spacer (dsDNA)
DNA 1: ATGCGCGCGCAT
DNA 2: ATGCGCGCGCAT
B4: in the data set with NRF1 DD-DBD [1] (self-complementary), the Kd is 570 ± 20 nM.

B5: NRF1 (aa 54–284) (domain or fragment, human, UniProt Q16656 54-284, looked up)
chain: T1 sequence
notes: pET28-MHL vector; His6 tag removed with TEV protease; also called Nuclear respiratory factor 1; NRF1 dimer; source: E. coli BL21 (DE3), purified (Ni-NTA, anion exchange, gel filtration); not shown: His6, N-terminal, cleaved
In the case of B5, the “stoichiometry N” value in data set [2] is 2.

B6: NRF1 (aa 54–177) (domain or fragment, human, UniProt Q16656 54-177, looked up)
chain: T3 sequence
notes: pET28-MHL vector; His6 tag removed with TEV protease; also called NRF1 DD; dimerization domain; source: E. coli BL21 (DE3), purified (Ni-NTA, anion exchange, gel filtration); not shown: His6, N-terminal, cleaved
Take B6: in data set [2], the “stoichiometry N” value turned out to be 2.

B7: ACACT spacer (dsDNA)
DNA 1: ATGCGCACACTGCGCAT
DNA 2: ATGCGCAGTGTGCGCAT
Consider B7, for which the Kd in the data set with NRF1 DD-DBD [1] was 2320 ± 480 nM.

B8: GCGt (dsDNA)
DNA 1: ATGCGTATGCGCAT
DNA 2: ATGCGCATACGCAT
B8: the Kd in the data set with NRF1 DD-DBD [1] was determined as 1250 ± 110 nM.

B9: A spacer (dsDNA)
DNA 1: ATGCGCAGCGCAT
DNA 2: ATGCGCTGCGCAT
In the case of B9, the Kd with NRF1 DD-DBD [1] is 1620 ± 110 nM.

B10: 16 bp DNA (dsDNA)
DNA 1: GGTGCGCATGCGCACC
DNA 2: GGTGCGCATGCGCACC
B10: in the data set with NRF1 DBD [3], the binding result is “binds”.

B11: ACGT spacer (dsDNA)
DNA 1: ATGCGCACGTGCGCAT
DNA 2: ATGCGCACGTGCGCAT
On to B11, for which, in the data set with NRF1 DD-DBD [1] (self-complementary), the Kd worked out at 910 ± 40 nM.

B12: GaGC (dsDNA)
DNA 1: ATGAGCATGCGCAT
DNA 2: ATGCGCATGCTCAT
B12: in the data set with NRF1 DD-DBD [1], the Kd is 1380 ± 150 nM.

B13: ACACTT spacer (dsDNA)
DNA 1: ATGCGCACACTTGCGCAT
DNA 2: ATGCGCAAGTGTGCGCAT
On to B13, for which, in the data set with NRF1 DD-DBD [1], the Kd is 4360 ± 290 nM.

B14: ACACTCT spacer (dsDNA)
DNA 1: ATGCGCACACTCTGCGCAT
DNA 2: ATGCGCAGAGTGTGCGCAT
B14: the Kd in the data set with NRF1 DD-DBD [1] was determined as 4310 ± 280 nM.

B15: GCtC (dsDNA)
DNA 1: ATGCTCATGCGCAT
DNA 2: ATGCGCATGAGCAT
For B15, the equilibrium dissociation constant (Kd) in the data set with NRF1 DD-DBD [1] turned out to be 2230 ± 170 nM.

B16: 14 bp AT central (WT) (dsDNA)
DNA 1: ATGCGCATGCGCAT
DNA 2: ATGCGCATGCGCAT
Consider B16, for which the Kd with NRF1 DD-DBD [1] (self-complementary) is 310 ± 50 nM; with NRF1 DBD [4], ~1400 nM; in the data set with NRF1 DD it was ~1800 nM; with NRF1 N242A it was ~1730 nM; with NRF1 T109D, ~1600 nM; with NRF1 T109A, ~2290 nM. Besides, the Kd with NRF1 R206A was ~5200 nM; with NRF1 R244A, ~6660 nM.

B17: GCaC (dsDNA)
DNA 1: ATGCACATGCGCAT
DNA 2: ATGCGCATGTGCAT
In the case of B17, the dissociation constant Kd with NRF1 DD-DBD [1] is 660 ± 40 nM.

B18: NRF1 (aa 98–177) (domain or fragment, human, UniProt Q16656 98-177, looked up)
chain: ESNPSIRKRQQTRLLRKLRATLDEYTTRVGQQAIVLCISPSKPNPVFKVFGAAPLENVVRKYKSMILEDLESALAEHAPA
notes: pET28-MHL vector; His6 tag removed with TEV protease; source: E. coli BL21 (DE3), purified (Ni-NTA, anion exchange, gel filtration); not shown: His6, N-terminal, cleaved
B18: the “stoichiometry N” value in data set [2] came to 2.

B19: tCGC (dsDNA)
DNA 1: ATTCGCATGCGCAT
DNA 2: ATGCGCATGCGAAT
In the case of B19, the Kd with NRF1 DD-DBD [1] is 2110 ± 800 nM.

B20: ACT spacer (dsDNA)
DNA 1: ATGCGCACTGCGCAT
DNA 2: ATGCGCAGTGCGCAT
For the molecule B20, the dissociation constant Kd in the data set with NRF1 DD-DBD [1] is 1960 ± 270 nM.

B21: 20 bp DNA (dsDNA)
DNA 1: GCGATGCGCATGCGCATCGC
DNA 2: GCGATGCGCATGCGCATCGC
As to B21, the Kd with NRF1 DD-DBD [5] is ~300 nM.

B22: GtGC (dsDNA)
DNA 1: ATGTGCATGCGCAT
DNA 2: ATGCGCATGCACAT
Consider B22, for which, in the data set with NRF1 DD-DBD [1], the Kd is 1810 ± 250 nM.

B23: GCaC/GtGC (dsDNA)
DNA 1: ATGCACATGTGCAT
DNA 2: ATGCACATGTGCAT
In the case of B23, in the data set with NRF1 DD-DBD [1] (self-complementary), the Kd was determined as 4430 ± 550 nM.

B24: aCGC (dsDNA)
DNA 1: ATACGCATGCGCAT
DNA 2: ATGCGCATGCGTAT
For the molecule B24, the Kd in the data set with NRF1 DD-DBD [1] is 1270 ± 270 nM.

B25: GCGa (dsDNA)
DNA 1: ATGCGAATGCGCAT
DNA 2: ATGCGCATTCGCAT
Take B25: the Kd in the data set with NRF1 DD-DBD [1] is 3750 ± 690 nM.
